Reference: patent US8927207B2, “miRNAs as therapeutic targets in cancer” (Research Foundation of State University of New York, priority 2008, dated 2015)

Key:
[1] = test system: DHFR mRNA; experiment: real time qRT-PCR of DHFR mRNA after transfection; assay type: cell-based, human; settings: HCT-116 (wt-p53), 24 h after transfection, GAPDH normalized
Procedure: The analysis was performed as follows. Total RNA, including miRNA, was isolated from cell lines by using TRIzol reagent (Invitrogen) according to the manufacturer's instructions at 24 h after transfection. cDNA was synthesized with the High Capacity cDNA synthesis kit (Applied Biosystems) using 2 μg of total RNA as the template and random primers. Real-time qRT-PCR analysis was done on the experimental mRNAs. The PCR primers and probes for DHFR, and the internal control gene GAPDH were purchased from Applied Biosystems. qRT-PCR was done on an ABI 7500HT instrument under the following conditions: 50° C., 2 min of reverse transcription; 95° C., 10 min; 95° C., 15 sec; 60° C., 1 min. The reaction was done for up to 40 cycles (n=3). GAPDH was used as an internal standard for normalization.

[2] = test system: HCT-116 (null-p53) cells; experiment: WST-1 cellular proliferation after miR-192 transfection; assay type: cell-based, human; settings: n=3
Procedure: (§1) miR-192 inhibits cell proliferation of HCT-116 (wt-p53), RKO (wt-p53) and HT-29 (mut-p53) colon cancer cell lines. To assess the functional significance of miR-192, the impact of miR-192 on cellular proliferation was evaluated using HCT-116 (wt-p53), HCT-116 (null-p53), RKO (wt-p53) and HT-29 (mut-p53) colon cancer cell lines. The human colon cancer cell lines HCT-116 (wt-p53) and HCT-116 (null-p53) were provided by Prof Bert Vogelstein (The Johns Hopkins University) and were maintained in McCoy's 5A medium (Life Technologies). The other two human colon cancer cell lines, RKO (wt-p53) and HT-29 (mut-p53), were obtained from the American Type Culture Collection. The HT-29 (mut-p53) cell line has a missense mutation in codon 273 of p53 resulting in an Argto-His substitution. RKO (wt-p53) and HT-29 (mut-p53) cells were maintained in Eagle's MEM and Iscove's Modified Dulbecco's Medium at the American Type Culture Collection, respectively. All media were supplemented with 10% dialyzed fetal bovine serum (Hyclone Laboratories). All cell lines were grown at 37° C. in a humidified incubator with 5% CO2. The cell lines were transfected as described above (see Examples 1 and 2).
(§2) The cellular proliferation was evaluated as follows. HCT-116 (wt-p53) (FIG. 4A), HCT-116 (null-p53) (FIG. 4C), RKO (wt-p53) (FIG. 4B), and HT-29 cells (FIG. 4D) were plated in 96-well plates in triplicate at 1×10^3 cells per well after transfection with miR-192 precursor (illustrated as—Δ—) or non-specific control miRNA (illustrated as—□—). Cells were cultured for 24, 48, 72, or 96 hours. The absorbance at 450 and 630 nm was measured after incubation with 10 μl of WST-1 for 2 hours. A non-specific miR was used as a negative control.

[3] = test system: HCT-116 (wt-p53) cells; experiment: as above; assay type: cell-based, human; settings: overexpression vs non-specific miR, n=3
Procedure: as §1, §2

[4] = test system: HT-29 (mut-p53) cells; experiment: as above; assay type: cell-based, human; settings: HT-29, n=3
Procedure: as §1, §2

[5] = test system: RKO (wt-p53) cells; experiment: as above; assay type: cell-based, human; settings: n=3
Procedure: as §1, §2

[6] = test system: HCT-116 (wt-p53) cells; experiment: cell cycle analysis by flow cytometry; assay type: cell-based, human; set-up: cell cycle profile G1/S / cell cycle profile G2/S: unit not given here
Procedure: (§3) To determine whether the miR-192's impact on cellular proliferation was related to cell cycle control, the effect on cell cycle control was analyzed by flow cytometry using HCT-116 (wt-p53) (FIG. 5A) and HCT-116 (null-p53) (FIG. 5B) cells transfected with non-specific control miR (left line graph) or miR-192 (right line graph). This experiment was performed as follows. The HCT-116 (wt-p53) and HCT-116 (null-p53) cells lines as described above (see Example 3) were transfected with miR-192 precursor and the non-specific control miRNA described as above (see Examples 1 and 2). At 36 hours after transfection, the cells were harvested and resuspended at 0.5-1×10^5 cells/ml in modified Krishan buffer containing 0.1% sodium citrate and 0.3% NP-40 and kept at 4° C. Before being analyzed by flow cytometry, cells were treated with 0.02 mg/ml RNase H and stained with 0.05 mg/ml propidium iodide (Sigma).
miR-215 induces G2-arrest in HCT-116 (wt-p53) and U-2 OS cells. To investigate the mechanism by which miR-215 suppressed cell proliferation in HCT-116 (wt-p53) and U-2 OS cells, the impact of miR-215 on cell cycle control was analyzed by flow cytometry at 36 h after transfection. HCT-116 (wt-p53), HCT-116 (null-p53), U-2 OS and MG63 cells were transfected with miR-215 precursor and the non-specific control miRNA described as above. At 36 h after transfection, cells were harvested and resuspended at 0.5-1 10^5 cells/ml in modified Krishan buffer containing 0.1% sodium citrate and 0.3% NP-40 and kept at 4° C. Before analysis by flow cytometry, cells were treated with 0.02 mg/ml RNase H and stained with 0.05 mg/ml propidium iodide (Sigma).

[7] = test system: HCT-116 (null-p53) cells; experiment: cell cycle analysis by flow cytometry; assay type: cell-based, human
Procedure: as §3

[8] = test system: Rb; experiment: Western immunoblot of Rb, HCT-116 (wt-p53); assay type: cell-based, human
Procedure: The expression of miR-192 on the expression of E2F3 and Rb in HCT-116 (wt-p53) cells was also analyzed. In these experiments, HVT-116 (wt-p53) cells, as described above (see Example 3) were transfected with non-specific miR (FIG. 7, lane 2), DHFR siRNA (FIG. 7, lane 3) or miR-192 (FIG. 7, lane 4) according to the procedure described above (see Examples 1 and 2). One HCT-116 (wt-p53) sample was not transfected, and used as a negative control (FIG. 7, lane 1). Western immunoblot analysis was performed according to the procedure described above (see Example 5), except that rabbit anti-E2F-3 polyclonal antibody (1:1000, C-18) (Santa Cruz Biotechnology) was used.

[9] = test system: TS mRNA; experiment: real time qRT-PCR of TS mRNA; assay type: cell-based; settings: U-2 OS cells
Procedure: Expression levels of TS or DHFR mRNA were analyzed using real time qRT-PCR analysis (FIG. 15).

[10] = HCT-116 (null), 36 hours after transfection

B1: miR-192: microRNA miR-192 (SEQ ID NO:1), transfected into cells as miR-192 precursor (Ambion) (nucleic acid)
chain: GCCGAGACCGAGUGCACAGGGCUCUGACCUAUGAAUUGACAGCCAGUGCUCUCGUCUCCCCUCUGGCUGCCAAUUCCAUAGGUCACAGGUAUGUUCGCCUCAAUGCCAGC
modifications: delivered as precursor, further chemistry not given here
Which results are given for B1?
DHFR mRNA expression [1]: no reduction; suppression of cellular proliferation [2]: 15%; suppression of cellular proliferation [3]: over 55%; suppression of cellular proliferation [4]: 24%; suppression of cellular proliferation [5]: 48%; cell cycle profile G1 ([6]; 36 hours after transfection): 40.84%; cell cycle profile G1/S ([6]; 36 hours after transfection): 2.83; cell cycle profile G2 ([6]; 36 hours after transfection): 44.71%; cell cycle profile G2/S ([6]; 36 hours after transfection): 3.09; cell cycle profile S ([6]; 36 hours after transfection): 14.45%; G1 arrest ([6]; vs non-specific miR): > 2 fold; G2 arrest ([6]; vs non-specific miR): > 3 fold; cell cycle profile G1 [7, 10]: 35.65%; cell cycle profile G1/S [7, 10]: 0.79 ratio (unitless); cell cycle profile G2 [7, 10]: 19.06%; cell cycle profile G2/S [7, 10]: 0.42 ratio (unitless); cell cycle profile S [7, 10]: 45.29%; G1 and G2 arrest ([7]; HCT-116 (null-p53)): has not been observed; expression of Rb [8]: decreased expression; TS mRNA expression [9]: no reduction
